Experiments:
[1] = biological target: GiTim17 synthesized in vitro (PURExpress) in lecithin liposomes (Giardia intestinalis); assay: native gel or EMSA; 35S-labelled GiTim17 translated in vitro with lecithin liposomes; pellet washed with 2 M urea in 50 mM sodium phosphate pH 8; Blue Native PAGE with 2% digitonin, 4-16% Bis-Tris gel
[2] = biological target: the molecule itself; assay: non-reducing SDS-PAGE; GiTim17 in vivo in Giardia; ~40 kDa complex on nonreducing SDS-PAGE, no reducing agent

## GiTim17 synthesized in vitro (PURExpress) in lecithin liposomes (natural protein)
[1]
  stoichiometry N: 2

B1: Giardia intestinalis Tim17 protein (GiTim17), in vivo in Giardia (natural protein, UniProt D3KGG5 1-180, looked up)
chain: MLRLWQEYVQEDDVLACLSVLDEDCQRAVQVIERLDVEGGTPEMQTHERVCTSFSHGLIRTALRRFPLALSKNLGRVQSMLNAFNHALQETSTESFSHAISSSCGSLVSSLCNNPSAGAAMGALPNLRKSPGAALSALLMGPTIAHLVGSVYSLGLNAYHICKLELRDLRLHRAEMDKKA
notes: Tim17 family protein of Giardia intestinalis, GL50803_10452, a protein of 180 amino acids, predicted mass 19.4 kDa; also called GL50803_10452
[2]
  stoichiometry N: ~2
